Experimental data reported in patent US20250327097A1, “ORGANISMS PRODUCING LESS CROTONIC ACID” (Global Bioenergies, priority 2021, published 2025).
Residue numbers refer to the chain shown, from its start. Names may count otherwise.

B1: I283T-N285P-N287T-Q290E-S322T-N388M-K394R-C430A-L432F-L434W-S436N-i445aQ-dG462 (protein)
chain: MFLKSLREQINLLKRQGDLRIINRPVDSYLEAAAIIRRSTETKAPVPLMTNIKGYPGCSIVGGLAALSSNPEYPLSRVAMSLGLSTTASAQSIVQYLIDGLKKTPYLPVEIDSNSAPCKQNILRGEDASLAHFPIPQVHQHDGNRYVNTWGVFIVESPDGQWCNWSIQRVQYLNDRQMIALVFPSQHISDIWEEWVKIGKPMPYALVQGCEPIVPYIAGLPLLERNVNEAEYIGALYGKGIEVVKCETHDLRVPASSEVVIEGYFAITREGVEGPFGEFAGYTPPETSLEPILSITAISWQDDPIWPVVAEGKPVDEYHTCTGIGDAAAIQNVLLTANLPVSFVWVPLYSACHLMIVSINRHWRQTHPDLTSEQLTKKVGDVIHQTRMSIKLPRIVVLDDDVDPADTESLLWALATRIHPERKRYFYESAIFPWLNCYSEEERHNRKGKRVIIDALLPENHGAISSFDYAYPDDIKQRVLMHWETDFSHD
B2: I283T-N285P-N287T-Q290E-S322T-N388M-K394R-C430A-L432F-L434W-S436N-i449aS-dG462 (protein)
chain: B1 chain
B3: L223Y-I283T-N285P-N287T-Q290E-S322T-N388M-K394R-K423G-C430A-i430aN-L432F-L434W-S436N-dG462 (protein)
chain: B1 chain with L223Y, K423G
B4: I283T-N285P-N287T-Q290E-S322T-N388M-K394R-E421F-C430A-L432F-L434W-S436N-i448aS-dG462 (protein)
chain: B1 chain with E421F
B5: L223Y-I283T-N285P-N287T-Q290E-S322T-N388M-K394R-K423G-C430A-i430aG-L432F-L434W-S436N-dG462 (protein)
chain: B1 chain with L223Y, K423G
B6: L223Y-I283T-N285P-N287T-Q290E-S322T-N388M-K394R-C430A-i430aG-L432F-L434W-S436N-dG462 (protein)
chain: B1 chain with L223Y
B7: L223Y-I283T-N285P-N287T-Q290E-S322T-N388M-K394R-i429aN-C430A-L432F-L434W-S436N-dG462 (protein)
chain: B1 chain with L223Y
B8: I283T-N285P-N287T-Q290E-S322T-N388M-K394R-C430A-i431aG-L432F-L434W-S436N-dG462 (protein)
chain: B1 chain
B9: I283T-N285P-N287T-Q290E-S322T-N388M-K394R-E421F-C430A-i430aG-L432F-L434W-S436N-dG462 (protein)
chain: B1 chain with E421F
B10: I283T-N285P-N287T-Q290E-S322T-N388M-K394R-C430A-L432F-L434W-S436N-i447aL-dG462 (protein)
chain: B1 chain
B11: I283T-N285P-N287T-Q290E-S322T-N388M-K394R-E421F-C430A-i430aL-L432F-L434W-S436N-dG462 (protein)
chain: B1 chain with E421F
B12: L223Y-I283T-N285P-N287T-Q290E-S322T-N388M-K394R-K423G-C430A-L432F-L434W-S436N-i448aS-dG462 (protein)
chain: B1 chain with L223Y, K423G
B13: I283T-N285P-N287T-Q290E-S322T-N388M-K394R-C430A-L432F-L434W-S436N-i447aK-dG462 (protein)
chain: B1 chain
B14: L223Y-I283T-N285P-N287T-Q290E-S322T-N388M-K394R-E421F-C430A-L432F-L434W-S436N-dG462 (protein)
chain: B1 chain with L223Y, E421F
B15: I283T-N285P-N287T-Q290E-S322T-N388M-K394R-E421F-C430A-i430aN-L432F-L434W-S436N-dG462 (protein)
chain: B1 chain with E421F
B16: I283T-N285P-N287T-Q290E-S322T-N388M-K394R-C430A-i431aL-L432F-L434W-S436N-dG462 (protein)
chain: B1 chain
B17: L223Y-I283T-N285P-N287T-Q290E-S322T-N388M-K394R-K423G-C430A-i430aL-L432F-L434W-S436N-dG462 (protein)
chain: B1 chain with L223Y, K423G
B18: I283T-N285P-N287T-Q290E-S322T-N388M-K394R-C430A-i431aN-L432F-L434W-S436N-dG462 (protein)
chain: B1 chain
B19: I283T-N285P-N287T-Q290E-S322T-N388M-K394R-C430A-L432F-L434W-S436N-i447aP-dG462 (protein)
chain: B1 chain
B20: L223Y-I283T-N285P-N287T-Q290E-S322T-N388M-K394R-E421F-K423G-C430A-L432F-L434W-S436N-dG462 (protein)
chain: B1 chain with L223Y, E421F, K423G
B21: I283T-N285P-N287T-Q290E-S322T-N388M-K394R-C430A-L432F-L434W-S436N-i448aS-dG462 (protein)
chain: B1 chain
B22: I283T-N285P-N287T-Q290E-S322T-N388M-K394R-C430A-L432F-L434W-S436N-i447aY-dG462 (protein)
chain: B1 chain

Tested on: 3-methylcrotonic acid
Assay type: biochemical, Yersinia frederiksenii
Design: key: “+” representing a low increase in activity; “++++” representing a high increase in activity

Molecule	Activity relative to WT
B1	++++
B2	++++
B3	++++
B4	++++
B5	++++
B6	++++
B7	++++
B8	++++
B9	++++
B10	++++
B11	++++
B12	++++
B13	++++
B14	++++
B15	++++
B16	++++
B17	++++
B18	++++
B19	++++
B20	++++
B21	++++
B22	++++
